The target in test [1] is T1, human MerTK on M2c-differentiated human macrophages (human, UniProt Q12866 21-999).
T1 sequence: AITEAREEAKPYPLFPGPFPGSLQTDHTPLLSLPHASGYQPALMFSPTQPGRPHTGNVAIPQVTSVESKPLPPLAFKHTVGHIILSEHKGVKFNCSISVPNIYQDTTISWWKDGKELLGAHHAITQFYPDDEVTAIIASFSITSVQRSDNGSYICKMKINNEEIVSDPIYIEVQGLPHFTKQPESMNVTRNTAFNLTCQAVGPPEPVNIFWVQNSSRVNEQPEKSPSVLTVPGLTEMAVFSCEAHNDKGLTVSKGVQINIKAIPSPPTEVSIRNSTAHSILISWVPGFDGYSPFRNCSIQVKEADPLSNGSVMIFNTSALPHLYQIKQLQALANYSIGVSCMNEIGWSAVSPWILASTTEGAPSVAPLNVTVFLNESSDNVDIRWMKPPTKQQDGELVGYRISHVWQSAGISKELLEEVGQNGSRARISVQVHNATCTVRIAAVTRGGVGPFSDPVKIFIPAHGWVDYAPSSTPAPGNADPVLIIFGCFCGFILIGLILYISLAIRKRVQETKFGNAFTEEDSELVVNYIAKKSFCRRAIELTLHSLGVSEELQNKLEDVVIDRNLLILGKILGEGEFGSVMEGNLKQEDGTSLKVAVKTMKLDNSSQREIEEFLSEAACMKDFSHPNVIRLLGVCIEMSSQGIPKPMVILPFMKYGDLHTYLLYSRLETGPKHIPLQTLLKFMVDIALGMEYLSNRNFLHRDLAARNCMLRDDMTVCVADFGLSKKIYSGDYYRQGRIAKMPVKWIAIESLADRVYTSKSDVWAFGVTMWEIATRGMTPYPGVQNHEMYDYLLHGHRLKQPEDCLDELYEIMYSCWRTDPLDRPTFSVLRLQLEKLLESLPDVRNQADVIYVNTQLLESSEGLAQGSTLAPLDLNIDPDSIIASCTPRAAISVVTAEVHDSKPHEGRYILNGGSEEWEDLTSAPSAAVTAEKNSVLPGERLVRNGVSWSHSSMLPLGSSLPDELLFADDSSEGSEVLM
The test can be described thus: cell-based or functional assay.

Test [2] has as its target T2, recombinant murine MerTK extracellular domain (mouse, UniProt Q60805 19-497).
T2 construct: also called moMerTK; mouse MerTK; not shown: PolyHis tag or TEVS/Thrombin/murine IgG2a Fc tag (a commercial human IgG1 Fc fusion is also mentioned); which form was t
T2 sequence: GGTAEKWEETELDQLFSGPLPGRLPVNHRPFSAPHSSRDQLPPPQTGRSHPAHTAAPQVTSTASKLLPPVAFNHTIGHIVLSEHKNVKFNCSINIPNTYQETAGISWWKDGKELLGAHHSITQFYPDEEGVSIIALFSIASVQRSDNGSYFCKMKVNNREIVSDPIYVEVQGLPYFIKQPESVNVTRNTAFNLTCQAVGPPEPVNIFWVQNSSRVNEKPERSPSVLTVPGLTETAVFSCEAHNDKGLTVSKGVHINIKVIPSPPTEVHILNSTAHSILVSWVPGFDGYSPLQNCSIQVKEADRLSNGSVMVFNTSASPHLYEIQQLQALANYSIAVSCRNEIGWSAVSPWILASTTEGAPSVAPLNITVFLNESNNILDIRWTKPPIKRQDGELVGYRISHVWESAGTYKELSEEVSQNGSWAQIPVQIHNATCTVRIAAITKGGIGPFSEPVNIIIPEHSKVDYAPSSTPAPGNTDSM
The test can be described thus: SPR (Carterra LSA), antibody immobilized, MerTK ECD as analyte; estimate, fits not ideal for a 1:1 model. As for the experimental part: (§1) Binding kinetics of bispecific anti-MerTK:anti-PDL1 antibodies of the present disclosure to human, cyno, and murine MerTK were evaluated using a Carterra LSA instrument. […] A HC30 sensor chip (Carterra) was activated using the single channel flow cell with a 7-minute injection of a 1:1:1 mixture of 100 mM MES pH 5.5, 100 mM sulfo-NHS, 400 mM EDC (all reconstituted in MES pH 5.5; 100 μl of each mixed in vial immediately before running assay). After switching to the multi-channel array flow cell, the antibodies were injected over the activated chip in a 96-spot array for 15 minutes. A duplicate injection of the antibodies on a second block of the chip was spotted as before. The remaining unconjugated active groups on the chip were then blocked by injecting 1M Ethanolamine pH 8.5 (Carterra) for 7 minutes using the single channel flow cell.
(§2) After priming with running buffer (HBS-TE, Carterra) with 0.5 mg/ml BSA (Sigma), the immobilized anti-MerTK antibodies were tested for their ability to bind to several forms of recombinant MerTK extracellular domain, including that of human, cynomolgus, and mouse orthologs as described above. Estimates of affinity were generated by injecting each analyte over the entire antibody array using the single channel flow cell. […] Dissociation was followed for 300 seconds before regenerating after each injection with 2×30 seconds of 10 mM Glycine pH2.5. Three buffer blanks were run between each series (one species per series). After all concentrations of all three species of MerTK were injected, a duplicate set of injections was performed, so that each concentration for all three species was injected in widely spaced duplicates. Data were processed and analyzed using NextGenKIT high-throughput kinetics analysis software (Carterra).

Test [3] concerns the target T1, human MerTK on M2c-differentiated human …. The test can be described thus: flow cytometry on M2c-differentiated human macrophages, Dylight650-conjugated antibody; average FACS Kd from Prism fit of MFI. From the text: (§3) Human macrophages were differentiated from human monocytes for 7 days in the presence of human M-CSF, resulting in M2c-differentiated human macrophages. After 7 days, the differentiated human macrophages were harvested (by scraping), resuspended in PBS, and plated on 96-well plates for use. CHO cells overexpressing human MerTK (CHO-huMerTK OE), CHO cells overexpressing human PDL1 (CHO-huPDL1 OE), and M2c-differentiated human macrophages were stained with Dylight650-conjugated bispecific anti-MerTK:anti-PDL1 antibodies, or bivalent anti-MerTK antibodies for 30 min on ice. A range of antibody concentrations were used in these studies to obtain binding curves. All antibodies tested in these studies were IgG1 having Fc regions comprising LALAPS mutations. Cells were fixed and then acquired on a BD FACS Canto II cytometer. The mean fluorescence intensity (MFI) was calculated using FlowJo software and Kd value was calculated using Prism software.

The target in test [4] is T3, human MerTK overexpressed on CHO cells (human, UniProt Q12866 21-999).
T3 construct: also called CHO-huMerTK OE; CHO-human MerTK OE cells
T3 sequence: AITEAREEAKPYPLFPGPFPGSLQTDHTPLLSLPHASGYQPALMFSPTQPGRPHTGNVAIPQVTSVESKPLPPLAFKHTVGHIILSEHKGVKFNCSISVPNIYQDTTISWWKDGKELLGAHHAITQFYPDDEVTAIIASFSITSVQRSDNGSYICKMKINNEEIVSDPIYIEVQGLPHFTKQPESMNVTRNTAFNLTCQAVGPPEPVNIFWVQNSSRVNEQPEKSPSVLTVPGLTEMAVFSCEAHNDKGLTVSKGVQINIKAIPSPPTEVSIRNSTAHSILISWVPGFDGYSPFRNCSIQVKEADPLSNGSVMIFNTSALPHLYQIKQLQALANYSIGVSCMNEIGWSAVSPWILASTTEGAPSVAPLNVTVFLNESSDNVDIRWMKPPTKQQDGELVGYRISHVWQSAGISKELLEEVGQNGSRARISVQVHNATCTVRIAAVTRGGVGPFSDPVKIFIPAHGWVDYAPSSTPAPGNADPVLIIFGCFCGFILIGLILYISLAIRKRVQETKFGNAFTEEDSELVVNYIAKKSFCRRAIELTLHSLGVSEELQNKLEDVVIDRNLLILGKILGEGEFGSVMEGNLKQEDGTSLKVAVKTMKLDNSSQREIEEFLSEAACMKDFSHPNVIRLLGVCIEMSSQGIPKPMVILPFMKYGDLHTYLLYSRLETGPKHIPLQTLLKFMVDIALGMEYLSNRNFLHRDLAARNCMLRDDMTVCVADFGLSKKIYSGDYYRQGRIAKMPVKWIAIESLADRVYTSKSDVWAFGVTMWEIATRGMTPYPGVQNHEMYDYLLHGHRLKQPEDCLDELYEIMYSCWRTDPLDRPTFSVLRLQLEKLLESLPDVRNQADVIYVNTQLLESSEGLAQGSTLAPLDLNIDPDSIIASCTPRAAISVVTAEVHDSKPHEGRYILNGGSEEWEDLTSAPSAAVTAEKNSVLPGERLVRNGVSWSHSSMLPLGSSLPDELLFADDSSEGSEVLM
The test can be described thus: flow cytometry on CHO-huMerTK OE cells, Dylight650-conjugated antibody; average FACS Kd from Prism fit of MFI.
Description: as §3

Test [5] deals with T2, recombinant murine MerTK extracellular …. In words: SPR (Carterra LSA), antibody immobilized, MerTK ECD as analyte. As for the experimental part: as §1, §2

Here are results for six molecules from patent publication US20240279341A1 (Alector, published 2024).

B1: monovalent anti-MerTK antibody MTK-33.11 (antibody, V domains shown)
VH: QVQLVQSGAEVKKPGASVKVSCKASGYTFTSYWMHWVRQAPGQGLEWIGVIDPSDNYINYNQKFQGRVTMTRDTSTSTVYMELSSLRSEDTAVYYCAREAWTRGYFDYWGQGTLVTVSS
VL: DIQMTQSPSSLSASVGDRVTITCQASRSVRNTVAWYQQKPGKAPKLLIYYASNRYTGVPSRFSGSGSGTDFTFTISSLQPEDIATYYCQQDYRSPFTFGQGTKLEIK
As to B1, the “Average Efferocytosis blocking IC50” value in test [1] was determined as 4.45 nM. The Kd in test [2] is 40 nM; in test [3], 9.96 nM; in test [4] it was 4.97 nM.

B2: bivalent anti-MerTK antibody MTK-33.11 (full IgG) (antibody, V domains shown)
VH: QVQLVQSGAEVKKPGASVKVSCKASGYTFTSYWMHWVRQAPGQGLEWIGVIDPSDNYINYNQKFQGRVTMTRDTSTSTVYMELSSLRSEDTAVYYCAREAWTRGYFDYWGQGTLVTVSS
VL: DIQMTQSPSSLSASVGDRVTITCQASRSVRNTVAWYQQKPGKAPKLLIYYASNRYTGVPSRFSGSGSGTDFTFTISSLQPEDIATYYCQQDYRSPFTFGQGTKLEIKR
B2: the “Average Efferocytosis blocking IC50” value in test [1] stood at 0.341 nM. The Kd is 50 nM in test [2], 2 nM in test [3] and 0.439 nM in test [4].

B3: bispecific anti-MerTK MTK-33.11:anti-PDL1 antibody (bispecific antibody, V domains shown)
VH 1: QVQLVQSGAEVKKPGASVKVSCKASGYTFTSYWMHWVRQAPGQGLEWIGVIDPSDNYINYNQKFQGRVTMTRDTSTSTVYMELSSLRSEDTAVYYCAREAWTRGYFDYWGQGTLVTVSS
VL 1: DIQMTQSPSSLSASVGDRVTITCQASRSVRNTVAWYQQKPGKAPKLLIYYASNRYTGVPSRFSGSGSGTDFTFTISSLQPEDIATYYCQQDYRSPFTFGQGTKLEIK
VH 2: not shown
VL 2: not shown
With B3, in test [1], the “Average Efferocytosis blocking IC50” value worked out at 4.42 nM. Moreover, the Kd in test [2] was 40 nM; in test [4], 3.25 nM.

B4: monovalent anti-MerTK antibody MTK-16.2 (antibody, V domains shown)
VH: QVQLVQSGSELKKPGASVKVSCKASGYTFTNHGMNWVRQAPGQGLEWMGWINTYTGEPTYADDFKGRFVFSLDTSVSTAYLQISSLKAEDTAVYYCARKGVTAARYFDYWGQGTLVTVSS
VL: DIQMTQSPSSLSASVGDRVTITCRASQNVRTAVAWYQQKPGKAPKRLIYLASNRHTGVPSRFSGSGSGTEFTLTISNLQPEDFATYYCLQHWNYPLTFGGGTKLEIK
For B4, the “Average Efferocytosis blocking IC50” value in test [1] came out at 37.9 nM. Moreover, the dissociation constant (Kd) amounted to 77.8 nM in test [3] and 40.5 nM in test [4]. In addition, the binding result in test [5] is reported as “no binding”.

B5: bivalent anti-MerTK antibody MTK-16.2 (full IgG) (antibody, V domains shown)
VH: QVQLVQSGSELKKPGASVKVSCKASGYTFTNHGMNWVRQAPGQGLEWMGWINTYTGEPTYADDFKGRFVFSLDTSVSTAYLQISSLKAEDTAVYYCARKGVTAARYFDYWGQGTLVTVSS
VL: DIQMTQSPSSLSASVGDRVTITCRASQNVRTAVAWYQQKPGKAPKRLIYLASNRHTGVPSRFSGSGSGTEFTLTISNLQPEDFATYYCLQHWNYPLTFGGGTKLEIKR
B5: the “Average Efferocytosis blocking IC50” value in test [1] stood at 0.436 nM. Also, the Kd in test [3] is 51.9 nM; in test [4], 42.5 nM. Moreover, the binding result in test [5] is “no binding”.

B6: bispecific anti-MerTK MTK-16.2:anti-PDL1 antibody (bispecific antibody, V domains shown)
VH 1: QVQLVQSGSELKKPGASVKVSCKASGYTFTNHGMNWVRQAPGQGLEWMGWINTYTGEPTYADDFKGRFVFSLDTSVSTAYLQISSLKAEDTAVYYCARKGVTAARYFDYWGQGTLVTVSS
VL 1: DIQMTQSPSSLSASVGDRVTITCRASQNVRTAVAWYQQKPGKAPKRLIYLASNRHTGVPSRFSGSGSGTEFTLTISNLQPEDFATYYCLQHWNYPLTFGGGTKLEIK
VH 2: not shown
VL 2: not shown
As to B6, in test [5], the binding result is recorded as “no binding”. In test [4], this molecule came in with a Kd of 48.3 nM.
